Columns and labels:
[1] = molecular target: T1, RXFP1 (Homo sapiens, UniProt Q9HBX9); assay: cAMP activity assay in HEK-RXFP1 cells (pCRE β-gal reporter); assay type: cell-based; settings: HEK-RXFP1 cells stably transfected with pCRE β-gal reporter, 37 °C for 6 h; four-parameter fit; mean ± S.E.M., n in brackets
T1 construct: expressed in transfected cells; host or cells: HEK-293T
T1 sequence (Q9HBX9 1-757): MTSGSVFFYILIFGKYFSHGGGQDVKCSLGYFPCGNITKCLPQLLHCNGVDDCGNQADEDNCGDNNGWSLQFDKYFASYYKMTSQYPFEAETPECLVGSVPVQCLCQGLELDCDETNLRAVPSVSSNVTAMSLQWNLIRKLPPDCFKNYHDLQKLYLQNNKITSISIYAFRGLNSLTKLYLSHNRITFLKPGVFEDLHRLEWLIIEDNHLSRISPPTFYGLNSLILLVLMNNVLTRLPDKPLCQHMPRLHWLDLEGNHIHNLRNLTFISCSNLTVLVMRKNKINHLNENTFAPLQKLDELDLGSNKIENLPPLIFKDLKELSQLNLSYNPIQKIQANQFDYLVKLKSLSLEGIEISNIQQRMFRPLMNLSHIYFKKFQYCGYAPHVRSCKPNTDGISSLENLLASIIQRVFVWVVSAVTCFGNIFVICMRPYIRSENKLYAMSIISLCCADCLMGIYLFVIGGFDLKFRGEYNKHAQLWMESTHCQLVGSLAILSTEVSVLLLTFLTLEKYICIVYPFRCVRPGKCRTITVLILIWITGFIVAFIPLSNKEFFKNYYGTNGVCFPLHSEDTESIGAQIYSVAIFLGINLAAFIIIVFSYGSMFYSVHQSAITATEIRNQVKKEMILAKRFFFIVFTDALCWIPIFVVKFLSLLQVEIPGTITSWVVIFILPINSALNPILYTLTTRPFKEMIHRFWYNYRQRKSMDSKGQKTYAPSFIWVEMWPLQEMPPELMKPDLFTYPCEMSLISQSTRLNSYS
Method: The ability of peptide analogs to activate cAMP in HEK-RXFP1 cells stably transfected with a pCRE β-gal reporter gene construct was tested as described in detail previously [13]. Cells were stimulated with increasing concentrations of peptide analogs in parallel to H2 relaxin (positive) or media (negative) controls, then incubated at 37 °C for 6 h, after which the media were aspirated, and the cells were frozen at −80 °C overnight. The following day, cAMP-driven β-gal expression was determined in cell lysates as described [32]. Experiments were performed in triplicate at least 3 times, and data were fitted to a four-parameter sigmoidal dose–response curve using GraphPad Prism 9 to determine ligand potency (pEC50).

[2] = molecular target: T2, 7BP (RXFP1 ectodomain fused to the single trans-membrane-spanning domain of CD8) (Homo sapiens, UniProt Q9HBX9); assay: Competitive binding assay with Eu3+-labeled H2 relaxin in HEK-7BP cells; settings: whole-cell competition binding vs Eu3+-labeled H2 relaxin, HEK cells expressing 7BP; one-site fit; mean ± S.E.M., n of experiments in brackets
T2 construct: contains the RXFP1 ectodomain fused to the single trans-membrane-spanning domain of CD8; expressed in transfected cells; host or cells: HEK cells (HEK-7BP)
T2 sequence (Q9HBX9 1-409 limits assumed): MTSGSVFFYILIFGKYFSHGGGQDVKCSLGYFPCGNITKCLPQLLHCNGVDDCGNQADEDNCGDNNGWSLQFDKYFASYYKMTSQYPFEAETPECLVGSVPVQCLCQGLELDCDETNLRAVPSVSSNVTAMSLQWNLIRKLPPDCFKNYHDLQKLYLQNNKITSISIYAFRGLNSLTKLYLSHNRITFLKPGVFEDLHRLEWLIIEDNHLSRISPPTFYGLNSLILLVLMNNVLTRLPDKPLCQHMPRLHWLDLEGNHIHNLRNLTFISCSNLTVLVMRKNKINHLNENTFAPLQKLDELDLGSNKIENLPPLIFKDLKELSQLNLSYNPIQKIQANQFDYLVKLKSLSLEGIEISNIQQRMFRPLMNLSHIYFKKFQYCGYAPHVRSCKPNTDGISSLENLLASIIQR
Method: Human embryonic kidney (HEK-293T) cells stably transfected with RXFP1 were cultured in RPMI 1640 medium supplemented with 10% fetal calf serum, 100 μg mL^−1 penicillin, 100 μg mL^−1 streptomycin, and 2 mM of L-glutamine and plated into 96-well plates pre-coated with poly-L-lysine for whole-cell binding assays (Merck, Darmstadt, Germany). Competition binding experiments using Eu^3+-labeled H2 relaxin in the absence or presence of increasing concentrations of unlabeled H2 relaxin B-chain derivatives were conducted as previously described [13]. All data are presented as the mean ± S.E.M. of the % specific binding of triplicate wells, repeated in at least three separate experiments, and curves were fitted using one-site binding curves in GraphPad Prism 9 (GraphPad Inc., San Diego, CA, USA).

## B13-31: N-terminally truncated single-chain H2 relaxin analog, residues 13–31 (RELVRAQIAICGMSTWSKR; Relaxin B chain; UniProt P04090 37-55, looked up, fragment)
[1]
  cAMP pEC50: No activity
[2]
  7BP Eu-H2 pKi: < 5

— paper PMC10454739, “Further Developments towards a Minimal Potent Derivative of Human Relaxin-2” (International Journal of Molecular Sciences, 2023)
